Source: US20230250154A1 (CYTONICS, published 2023)

Tests used:
Experiment in all cases: cell-based or functional assay
[1] = target: T1, ADAMTS4 (human, UniProt O75173 213-685, limits assumed)
T1 sequence (looked up): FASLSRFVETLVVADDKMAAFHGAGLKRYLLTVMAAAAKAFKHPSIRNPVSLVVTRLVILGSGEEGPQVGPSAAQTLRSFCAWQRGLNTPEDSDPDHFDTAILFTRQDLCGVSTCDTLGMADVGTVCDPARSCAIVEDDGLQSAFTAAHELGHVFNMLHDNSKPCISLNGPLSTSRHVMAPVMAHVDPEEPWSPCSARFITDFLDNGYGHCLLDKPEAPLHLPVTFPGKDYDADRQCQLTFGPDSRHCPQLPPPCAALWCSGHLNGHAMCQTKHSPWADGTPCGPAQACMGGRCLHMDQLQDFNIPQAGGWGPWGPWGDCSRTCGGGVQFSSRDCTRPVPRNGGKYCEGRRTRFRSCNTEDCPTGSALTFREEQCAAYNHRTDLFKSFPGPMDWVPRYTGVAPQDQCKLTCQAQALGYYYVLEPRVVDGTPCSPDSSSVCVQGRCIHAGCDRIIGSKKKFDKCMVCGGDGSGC

[2] = target: T2, ADAMTS5 (human, UniProt Q9UNA0 262-622, limits assumed)
T2 sequence (looked up): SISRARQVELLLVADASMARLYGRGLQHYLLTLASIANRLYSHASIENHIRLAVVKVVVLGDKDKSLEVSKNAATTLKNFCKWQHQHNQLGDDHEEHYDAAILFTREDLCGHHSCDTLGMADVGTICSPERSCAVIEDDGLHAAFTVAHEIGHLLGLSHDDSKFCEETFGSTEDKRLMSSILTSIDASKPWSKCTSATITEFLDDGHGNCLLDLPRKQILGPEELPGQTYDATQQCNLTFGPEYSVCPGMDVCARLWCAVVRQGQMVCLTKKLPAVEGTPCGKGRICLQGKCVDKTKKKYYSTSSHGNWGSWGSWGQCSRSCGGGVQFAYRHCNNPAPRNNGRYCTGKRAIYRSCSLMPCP

[3] = target: T3, MMP1 (human, UniProt P03956 100-469, limits assumed)
T3 sequence (looked up): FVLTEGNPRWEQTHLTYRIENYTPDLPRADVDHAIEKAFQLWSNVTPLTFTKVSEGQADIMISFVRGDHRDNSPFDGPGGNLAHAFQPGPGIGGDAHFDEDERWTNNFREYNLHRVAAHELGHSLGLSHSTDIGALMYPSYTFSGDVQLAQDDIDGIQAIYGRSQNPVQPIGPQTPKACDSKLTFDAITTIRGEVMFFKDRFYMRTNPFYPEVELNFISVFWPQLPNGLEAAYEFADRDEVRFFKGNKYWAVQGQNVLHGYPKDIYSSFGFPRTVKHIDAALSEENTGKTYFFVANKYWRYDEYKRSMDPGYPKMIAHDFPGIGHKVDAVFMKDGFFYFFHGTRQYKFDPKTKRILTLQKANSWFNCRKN

[4] = target: MMP8 (human, UniProt P22894 101-467, limits assumed)
[5] = target: MMP13 (human, UniProt P45452 104-471, limits assumed)
[6] = target: T4, MMP2 (human, UniProt P08253 110-660, limits assumed)
T4 sequence (looked up): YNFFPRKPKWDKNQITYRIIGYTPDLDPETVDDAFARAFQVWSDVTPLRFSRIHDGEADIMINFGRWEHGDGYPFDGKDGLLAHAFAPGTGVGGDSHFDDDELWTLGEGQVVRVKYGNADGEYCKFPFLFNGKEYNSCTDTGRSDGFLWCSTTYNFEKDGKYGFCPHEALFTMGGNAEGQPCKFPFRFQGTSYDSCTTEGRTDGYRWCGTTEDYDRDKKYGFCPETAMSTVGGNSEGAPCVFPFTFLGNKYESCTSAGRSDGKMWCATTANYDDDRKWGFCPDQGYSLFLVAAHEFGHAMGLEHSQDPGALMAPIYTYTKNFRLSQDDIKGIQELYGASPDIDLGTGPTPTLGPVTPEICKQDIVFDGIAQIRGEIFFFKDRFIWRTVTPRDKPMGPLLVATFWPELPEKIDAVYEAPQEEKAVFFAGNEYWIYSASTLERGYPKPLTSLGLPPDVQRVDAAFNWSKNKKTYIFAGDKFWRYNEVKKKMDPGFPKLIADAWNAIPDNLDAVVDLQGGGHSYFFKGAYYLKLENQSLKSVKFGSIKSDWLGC

[7] = target: MMP9 (human, UniProt P14780 107-707, limits assumed)
[8] = target: MMP3 (human, UniProt P08254 100-477, limits assumed)
[9] = target: Elastase
[10] = target: T5, Cathepsin G (UniProt P08311 21-244)
T5 sequence (looked up): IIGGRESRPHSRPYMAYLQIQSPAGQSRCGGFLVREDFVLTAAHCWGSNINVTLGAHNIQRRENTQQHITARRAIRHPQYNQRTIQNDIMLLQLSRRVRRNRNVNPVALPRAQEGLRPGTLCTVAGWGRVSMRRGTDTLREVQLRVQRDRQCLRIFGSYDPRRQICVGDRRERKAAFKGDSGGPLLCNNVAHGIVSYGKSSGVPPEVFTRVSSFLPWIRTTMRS

[11] = target: T6, MMP7 (UniProt P09237 95-267, limits assumed)
T6 sequence (looked up): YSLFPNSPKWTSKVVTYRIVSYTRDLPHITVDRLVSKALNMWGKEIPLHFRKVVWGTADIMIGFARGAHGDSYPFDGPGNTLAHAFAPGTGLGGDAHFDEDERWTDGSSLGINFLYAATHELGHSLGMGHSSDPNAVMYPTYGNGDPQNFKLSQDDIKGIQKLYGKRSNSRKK

Sequence of MMP9 (P14780 107-707 limits assumed): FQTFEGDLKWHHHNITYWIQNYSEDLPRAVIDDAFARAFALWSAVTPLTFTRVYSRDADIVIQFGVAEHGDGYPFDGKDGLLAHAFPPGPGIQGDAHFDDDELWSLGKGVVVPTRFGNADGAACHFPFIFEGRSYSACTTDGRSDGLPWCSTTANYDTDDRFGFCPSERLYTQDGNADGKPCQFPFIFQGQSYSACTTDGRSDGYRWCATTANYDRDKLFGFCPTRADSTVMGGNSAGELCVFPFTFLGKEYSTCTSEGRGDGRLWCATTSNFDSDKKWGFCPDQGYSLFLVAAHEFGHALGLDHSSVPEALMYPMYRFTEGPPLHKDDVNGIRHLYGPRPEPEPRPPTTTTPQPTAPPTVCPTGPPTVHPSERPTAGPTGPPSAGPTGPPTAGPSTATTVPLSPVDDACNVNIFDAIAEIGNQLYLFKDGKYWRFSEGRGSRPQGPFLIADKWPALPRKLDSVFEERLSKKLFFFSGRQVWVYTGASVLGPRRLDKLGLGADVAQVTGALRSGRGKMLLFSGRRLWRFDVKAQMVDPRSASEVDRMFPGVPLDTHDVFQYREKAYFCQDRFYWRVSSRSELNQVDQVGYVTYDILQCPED
Sequence of MMP8 (P22894 101-467 limits assumed): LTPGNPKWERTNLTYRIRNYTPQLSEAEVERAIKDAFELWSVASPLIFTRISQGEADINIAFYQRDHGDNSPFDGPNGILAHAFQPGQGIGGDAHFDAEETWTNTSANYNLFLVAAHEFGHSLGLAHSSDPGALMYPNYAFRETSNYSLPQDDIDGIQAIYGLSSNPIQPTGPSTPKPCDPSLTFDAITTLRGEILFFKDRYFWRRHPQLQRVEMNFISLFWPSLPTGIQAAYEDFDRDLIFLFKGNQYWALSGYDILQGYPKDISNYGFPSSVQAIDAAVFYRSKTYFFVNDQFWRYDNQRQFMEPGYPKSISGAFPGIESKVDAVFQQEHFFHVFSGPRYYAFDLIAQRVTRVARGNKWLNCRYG
Sequence of MMP3 (P08254 100-477 limits assumed): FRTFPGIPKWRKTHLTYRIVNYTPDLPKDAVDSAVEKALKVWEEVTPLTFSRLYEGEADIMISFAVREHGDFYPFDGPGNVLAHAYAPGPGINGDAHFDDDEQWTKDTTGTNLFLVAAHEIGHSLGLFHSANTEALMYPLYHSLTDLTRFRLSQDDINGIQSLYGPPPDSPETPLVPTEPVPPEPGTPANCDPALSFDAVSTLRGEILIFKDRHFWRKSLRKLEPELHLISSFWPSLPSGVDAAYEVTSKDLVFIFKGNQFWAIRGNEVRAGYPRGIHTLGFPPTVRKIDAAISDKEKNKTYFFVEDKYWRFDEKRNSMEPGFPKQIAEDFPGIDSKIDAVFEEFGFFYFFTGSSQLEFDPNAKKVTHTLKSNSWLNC

| Binder | Protease Inhibition (% of WT) [1] | Protease Inhibition (% of WT) [2] | Protease Inhibition (% of WT) [3] | Protease Inhibition (% of WT) [4] | Protease Inhibition (% of WT) [5] | Protease Inhibition (% of WT) [6] | Protease Inhibition (% of WT) [7] | Protease Inhibition (% of WT) [8] | Protease Inhibition (% of WT) [9] | Protease Inhibition (% of WT) [10] | Protease Inhibition (% of WT) [11] |
| --- | --- | --- | --- | --- | --- | --- | --- | --- | --- | --- | --- |
| Variant A2M, bait region SEQ ID NO 22 (other) SVSGKPQYMVLVPSLLHTETTEKGCVLLSYLNETVTVSASLESVRGNRSLFTDLEAENDVLHCVAFAVPKSSSNEEVMFLTVQVKGPTQEFKKRTTVMVKNEDSLVFVQTDKSIYKPGQTVKFRVVSMDENFHPLNELIPLVYIQDPKGNRIAQWQSFQLEGGLKQFSFPLSSEPFQGSYKVVVQKKSGGRTEHPFTVEEFVLPKFEVQVTVPKIITILEEEMNVSVCGLYTYGKPVPGHVTVSICRKYSDASDCHGEDSQAFCEKFSGQLNSHGCFYQQVKTKVFQLKRKEYEMKLHTEAQIQEEGTVVELTGRQSSEITRTITKLSFVKVDSHFRQGIPFFGQVRLVDGKGVPIPNKVIFIRGNEANYYSNATTDEHGLVQFSINTTNVMGTSLTVRVNYKDRSPCYGYQWVSEEHEEAHHTAYLVFSPSKSFVHLEPMSHELPCGHTQTVQAHYILNGGTLLGLKKLSFYYLIMAKGGIVRTGTHGLLVKQEDMKGHFSISIPVKSDIAPVARLLIYAVLPTGDVIGDSAKYDVENCLANKVDLSFSPSQSLPASHAHLRVTAAPQSVCALRAVDQSVLLMKPDAELSASSVYNLLPEKDLTGFPGPLNDQDDEDCINRHNVYINGITYTPVSSTNEKDMYSFLEDMGLKAFTNSKIRKPKMCPQLEHGPEGEGEGEFRGVTIPENFFGVPRYLTASEDLVVQISELEGRGSPHTKLRKYFPETWIWDLVVVNSAGVAEVGVTVPDTITEWKAGAFCLSEDAGLGISSTASLRAFQPFFVELTMPYSVIRGEAFTLKATVLNYLPKCIRVSVQLEASPAFLAVPVEKEQAPHCICANGRQTVSWAVTPKSLGNVNFTVSAEALESQELCGTEVPSVPEHGRKDTVIKPLLVEPEGLEKETTFNSLLCPSGGEVSEELSLKLPPNVVEESARASVSVLGDILGSAMQNTQNLLQMPYGCGEQNMVLFAPNIYVLDYLNETQQLTPEIKSKAIGYLNTGYQRQLNYKHYDGSYSTFGERYGRNQGNTWLTAFVLKTFAQARAYIFIDEAHITQALIWLSQRQKDNGCFRSSGSLLNNAIKGGVEDEVTLSAYITIALLEIPLTVTHPVVRNALFCLESAWKTAQEGDHGSHVYTKALLAYAFALAGNQDKRKEVLKSLNEEAVKKDNSVHWERPQKPKAPVGHFYEPQAPSAEVEMTSYVLLAYLTAQPAPTSEDLTSATNIVKWITKQQNAQGGFSSTQDTVVALHALSKYGAATFTRTGKAAQVTIQSSGTFSSKFQVDNNNRLLLQQVSLPELPGEYSMKVTGEGCVYLQTSLKYNILPEKEEFPFALGVQTLPQTCDEPKAHTSFQISLSVSYTGSRSASNMAIVDVKMVSGFIPLKPTVKMLERSNHVSRTEVSSNHVLIYLDKVSNQTLSLFFTVLQDVPVRDLKPAIVKVYDYYETDEFAIAEYNAPCSKDLGNADYKDDDDKGASHHHHHH | 104 % of WT | 316 % of WT | 68 % of WT | 54 % of WT | 93 % of WT | 42 % of WT | 30 % of WT | 265 % of WT | 92 % of WT | 78 % of WT | 75 % of WT |
| Variant A2M, bait region SEQ ID NO 23 (other) SVSGKPQYMVLVPSLLHTETTEKGCVLLSYLNETVTVSASLESVRGNRSLFTDLEAENDVLHCVAFAVPKSSSNEEVMFLTVQVKGPTQEFKKRTTVMVKNEDSLVFVQTDKSIYKPGQTVKFRVVSMDENFHPLNELIPLVYIQDPKGNRIAQWQSFQLEGGLKQFSFPLSSEPFQGSYKVVVQKKSGGRTEHPFTVEEFVLPKFEVQVTVPKIITILEEEMNVSVCGLYTYGKPVPGHVTVSICRKYSDASDCHGEDSQAFCEKFSGQLNSHGCFYQQVKTKVFQLKRKEYEMKLHTEAQIQEEGTVVELTGRQSSEITRTITKLSFVKVDSHFRQGIPFFGQVRLVDGKGVPIPNKVIFIRGNEANYYSNATTDEHGLVQFSINTTNVMGTSLTVRVNYKDRSPCYGYQWVSEEHEEAHHTAYLVFSPSKSFVHLEPMSHELPCGHTQTVQAHYILNGGTLLGLKKLSFYYLIMAKGGIVRTGTHGLLVKQEDMKGHFSISIPVKSDIAPVARLLIYAVLPTGDVIGDSAKYDVENCLANKVDLSFSPSQSLPASHAHLRVTAAPQSVCALRAVDQSVLLMKPDAELSASSVYNLLPEKDLTGFPGPLNDQDDEDCINRHNVYINGITYTPVSSTNEKDMYSFLEDMGLKAFTNSKIRKPKMCPQLEHGPIPENFYGVEGEGLGIGSEDLVVQISELEGRGSVEEPHTKLRKYFPETWIWDLVVVNSAGVAEVGVTVPDTITEWKAGAFCLSEDAGLGISSTASLRAFQPFFVELTMPYSVIRGEAFTLKATVLNYLPKCIRVSVQLEASPAFLAVPVEKEQAPHCICANGRQTVSWAVTPKSLGNVNFTVSAEALESQELCGTEVPSVPEHGRKDTVIKPLLVEPEGLEKETTFNSLLCPSGGEVSEELSLKLPPNVVEESARASVSVLGDILGSAMQNTQNLLQMPYGCGEQNMVLFAPNIYVLDYLNETQQLTPEIKSKAIGYLNTGYQRQLNYKHYDGSYSTFGERYGRNQGNTWLTAFVLKTFAQARAYIFIDEAHITQALIWLSQRQKDNGCFRSSGSLLNNAIKGGVEDEVTLSAYITIALLEIPLTVTHPVVRNALFCLESAWKTAQEGDHGSHVYTKALLAYAFALAGNQDKRKEVLKSLNEEAVKKDNSVHWERPQKPKAPVGHFYEPQAPSAEVEMTSYVLLAYLTAQPAPTSEDLTSATNIVKWITKQQNAQGGFSSTQDTVVALHALSKYGAATFTRTGKAAQVTIQSSGTFSSKFQVDNNNRLLLQQVSLPELPGEYSMKVTGEGCVYLQTSLKYNILPEKEEFPFALGVQTLPQTCDEPKAHTSFQISLSVSYTGSRSASNMAIVDVKMVSGFIPLKPTVKMLERSNHVSRTEVSSNHVLIYLDKVSNQTLSLFFTVLQDVPVRDLKPAIVKVYDYYETDEFAIAEYNAPCSKDLGNADYKDDDDKGASHHHHHH | 176 % of WT | 200 % of WT | 133 % of WT | 132 % of WT | 133 % of WT | 80 % of WT | 71 % of WT | 111 % of WT | 147 % of WT | 145 % of WT | 191 % of WT |
